The values that follow are results of earlier work, collected in patent US5389611A, “Lactoferrin hydrolyzate for use as an antibacterial agent and as a tyrosinase inhibition agent” (priority 1990, dated 1995).

Where two headings read alike, the source gives them in different places.

Series [1] relates to coliform bacillus (Escherichia coli), staphylococcus and other enterobacteria. As to conditions: Nonnecke and Smith 1984.
The conditions of series [2]: Ford et al 1977.

For lactoferrin, in series [1], the “concentration having antibacterial activity” value was 0.5 to 30 mg/mL. Moreover, the “antibacterial activity after heating” value in series [2] (heating at 62.5° C. for 30 minutes) is “almost completely suppressed”; in series [2] (heating at 70° C. for 15 minutes), “complete deactivation”.
